Substrate in series [1]: NC(=O)c1ccc[n+]([C@@H]2O[C@H](COP(=O)(O)OP(=O)(O)OC[C@H]3O[C@@H](n4cnc5c(N)ncnc54)[C@H](OP(=O)(O)O)[C@@H]3O)[C@@H](O)[C@H]2O)c1
The experiment in a line: purified protein. It is filed as biochemical, Umboniibacter marinipuniceus. The settings on record: 1 mM DL-isocitrate, 50 mM Tris-HCl pH 8.5, 25 °C, apparent constant, varied: cofactor.

Substrate in series [2]: NC(=O)c1ccc[n+]([C@@H]2O[C@H](COP(=O)(O)OP(=O)(O)OC[C@H]3O[C@@H](n4cnc5c(N)ncnc54)[C@H](O)[C@@H]3O)[C@@H](O)[C@H]2O)c1
Kind of series: purified protein. It is filed as biochemical, Umboniibacter marinipuniceus. The settings on record: 1 mM DL-isocitrate, 50 mM Tris-HCl pH 8.5, 25 °C, apparent constant, varied: cofactor.

Residue numbers refer to the chain shown, from its start. Names may count otherwise.

B1: UmIDH (Umboniibacter marinipuniceus) (protein)
chain: MTFQYILPPKSGEPIQHTQDNQIIVPDRPIIPYIEGDGIGIDITPVMLEVVDAAVAQAYKGKKSIAWMEVFCGEKAADIYEGDWFPPETLAALQKYSVAIKGPLTTPIGGGFRSLNVALRQELDLYVCQRPIQWFKGVPSVVRKPNAVKMVIFRENSEDIYAGIEWRAGSEEAIKVTRFLQEEMGVTSLRFTENCGLGVKPISEQGSKRLVRKAIEYAIAHDKPSVTMVHKGNIMKYTEGAFCEWGYEVACEEFGATHEADSPWLTIINPNTAAKIVIKDVIADAMMQEILMYPQDHSVIATMNLNGDYLSDALAAQVGGIGIAPGANIGDRIALFEPTHGTAPRLAGMDRVNPCSLILSAEMMLRHLGWTKAADLMVKGVKYTISDRTVTHDFHSMMEHAELLSTSEFGAAVIKNMRRR
notes: full-length, codon-optimised synthetic gene in pET28b (NdeI/XhoI), 6xHis tag, E. coli Rosetta (DE3); Type I IDH; putative coenzyme residues R345, L346, V352
On to B1, for which, in “purified protein [1]” (Mn2+ (2 mM)), the Km (in general, the substrate concentration at which the rate is half of its maximum) was 1167.7 ± 113.0 µM; the kcat (as a rule, the number of substrate molecules converted per active site and unit of time at saturation) amounted to 11.1 ± 0.4 s⁻¹; the kcat/Km – broadly, the turnover number divided by the Michaelis constant – was 9500 M⁻¹ s⁻¹. Further, in “purified protein [2]” (Mn2+ (2 mM)), the Km is 1800.0 ± 64.4 µM, the kcat is 7.5 ± 0.3 s⁻¹ and the kcat/Km was 4200 M⁻¹ s⁻¹.

B2: UmIDH (Umboniibacter marinipuniceus; L346I/R345D/V352A) (protein)
chain: B1 chain with R345D, L346I, V352A
notes: as for B1
For B2, in the series “purified protein [2]” (metal not stated for mutants), the Km worked out at 369.7 ± 11.84 µM, the kcat amounted to 17.7 ± 0.9 s⁻¹ and the kcat/Km was found to be 48000 M⁻¹ s⁻¹.

B3: UmIDH (Umboniibacter marinipuniceus; L346Y/R345K) (protein)
chain: B1 chain with R345K, L346Y
notes: as for B1
Regarding B3, in the series “purified protein [1]” (metal not stated for mutants), the Km was determined as 605.9 ± 38.2 µM, the kcat amounted to 15.3 ± 0.2 s⁻¹ and the catalytic efficiency (kcat/Km) came to 25000 M⁻¹ s⁻¹.

Values taken from publication PMC10380307, “Enzymatic Characterization of the Isocitrate Dehydrogenase with Dual Coenzyme Specificity from the Marine Bacterium Umbonibacter marinipuiceus” (International Journal of Molecular Sciences, 2023).
